Measurements as given in paper PMC3064780 (Nucleic Acids Research, 2010).

Assays:
eIF4A/eIF4G_mid complex [1] = target: T1, eIF4A/eIF4G_mid complex (Saccharomyces cerevisiae, UniProt P10081); test: competitive titration of the mantADP/protein complex, or ITC; format: binding; conditions: pH 7.5, 80 mM KCl, Mg2+; eIF4G_mid present
T1 sequence (P10081 1-395): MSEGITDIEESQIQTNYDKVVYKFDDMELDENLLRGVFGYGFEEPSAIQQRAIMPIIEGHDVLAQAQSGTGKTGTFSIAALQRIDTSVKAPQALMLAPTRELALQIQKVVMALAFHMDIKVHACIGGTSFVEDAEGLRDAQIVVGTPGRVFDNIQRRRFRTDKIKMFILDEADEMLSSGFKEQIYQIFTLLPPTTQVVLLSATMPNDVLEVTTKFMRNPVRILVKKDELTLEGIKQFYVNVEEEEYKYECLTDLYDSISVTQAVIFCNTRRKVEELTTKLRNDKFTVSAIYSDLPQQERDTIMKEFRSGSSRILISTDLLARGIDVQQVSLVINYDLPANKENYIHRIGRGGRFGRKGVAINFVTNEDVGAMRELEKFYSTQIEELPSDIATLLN
T1 sequence (P39935 572-853 K590R partner): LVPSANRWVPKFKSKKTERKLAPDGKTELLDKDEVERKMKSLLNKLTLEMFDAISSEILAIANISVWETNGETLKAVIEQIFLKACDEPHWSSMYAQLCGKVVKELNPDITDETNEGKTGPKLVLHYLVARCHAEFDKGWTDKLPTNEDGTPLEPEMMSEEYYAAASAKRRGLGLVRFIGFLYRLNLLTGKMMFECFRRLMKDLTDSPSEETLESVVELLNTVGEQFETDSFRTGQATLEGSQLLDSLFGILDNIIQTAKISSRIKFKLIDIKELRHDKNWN

eIF4A [2] = target: T2, eIF4A (Saccharomyces cerevisiae, UniProt P10081); test: as above; format: binding; conditions: pH 7.5, 80 mM KCl, Mg2+; without eIF4G
T2 sequence (P10081 1-395): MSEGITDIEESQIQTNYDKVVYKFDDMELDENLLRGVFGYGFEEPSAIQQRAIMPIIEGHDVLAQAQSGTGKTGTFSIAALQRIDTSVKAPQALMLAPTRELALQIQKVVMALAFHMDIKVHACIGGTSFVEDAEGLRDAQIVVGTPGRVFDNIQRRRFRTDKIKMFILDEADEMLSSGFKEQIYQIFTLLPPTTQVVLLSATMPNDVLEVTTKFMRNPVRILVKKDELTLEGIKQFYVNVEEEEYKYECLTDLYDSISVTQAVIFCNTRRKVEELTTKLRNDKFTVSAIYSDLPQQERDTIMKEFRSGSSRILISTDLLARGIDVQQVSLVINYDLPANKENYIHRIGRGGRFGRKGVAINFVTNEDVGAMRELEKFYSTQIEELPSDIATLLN

eIF4A/eIF4G_mid complex [3] = target: T1, eIF4A/eIF4G_mid complex; test: ITC or competitive titration; format: binding; conditions: pH 7.5, 80 mM KCl, Mg2+; eIF4G_mid present
eIF4A [4] = target: T2, eIF4A; test: ITC or competitive titration; format: binding; conditions: pH 7.5, 80 mM KCl, Mg2+; without eIF4G
[5] = target: eIF4G_mid (aa 572–853 of eIF4G, middle domain) (yeast) (UniProt P39935); test: ITC
[6] = target: T3, eukaryotic translation initiation factor 4A (eIF4A) (yeast, UniProt P10081 1-395); test: ITC
T3 sequence (looked up): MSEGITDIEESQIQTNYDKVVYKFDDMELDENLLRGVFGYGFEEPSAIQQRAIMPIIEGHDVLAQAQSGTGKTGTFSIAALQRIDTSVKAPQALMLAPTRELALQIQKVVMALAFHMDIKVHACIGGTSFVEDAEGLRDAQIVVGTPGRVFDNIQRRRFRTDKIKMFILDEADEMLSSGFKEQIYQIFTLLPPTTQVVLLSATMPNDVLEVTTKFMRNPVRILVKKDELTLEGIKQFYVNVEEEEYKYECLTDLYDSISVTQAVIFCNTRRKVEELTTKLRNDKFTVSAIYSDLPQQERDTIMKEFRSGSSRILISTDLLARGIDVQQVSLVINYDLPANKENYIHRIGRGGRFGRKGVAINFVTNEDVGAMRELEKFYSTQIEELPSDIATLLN

eIF4A_E43R = target: T4, eIF4A_E43R (yeast, UniProt P10081 1-395, E43R); test: ITC
T4 sequence (looked up): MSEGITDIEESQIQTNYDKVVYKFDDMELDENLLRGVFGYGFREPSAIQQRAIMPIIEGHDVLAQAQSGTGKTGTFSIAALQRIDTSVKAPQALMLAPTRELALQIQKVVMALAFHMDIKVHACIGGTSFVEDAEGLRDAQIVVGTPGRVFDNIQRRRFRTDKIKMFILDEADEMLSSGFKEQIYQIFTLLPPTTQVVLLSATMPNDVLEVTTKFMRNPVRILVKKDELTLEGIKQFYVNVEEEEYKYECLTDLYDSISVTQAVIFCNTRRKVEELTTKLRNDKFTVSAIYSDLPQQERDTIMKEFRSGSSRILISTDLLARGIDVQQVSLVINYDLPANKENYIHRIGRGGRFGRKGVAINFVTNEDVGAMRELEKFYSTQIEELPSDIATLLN

Nc1ncnc2c1ncn2[C@@H]1O[C@H](COP(=O)(O)OP(=O)(O)O)[C@@H](O)[C@H]1O [ADP]
Kd (eIF4A/eIF4G_mid complex [1]): the affinity of eIF4A for ADP and ATP is moderately decreased in the presence of eIF4G | Kd (eIF4A [2]): the affinity of eIF4A for ADP and ATP is moderately decreased in the presence of eIF4G

Nc1ncnc2c1ncn2[C@@H]1O[C@H](COP(=O)(O)OP(=O)(O)OP(=O)(O)O)[C@@H](O)[C@H]1O [ATP]
Kd (eIF4A/eIF4G_mid complex [3]): the affinity of eIF4A for ADP and ATP is moderately decreased in the presence of eIF4G | Kd (eIF4A [4]): the affinity of eIF4A for ADP and ATP is moderately decreased in the presence of eIF4G

eIF4A-RecA_C (aa 226-406) (domain or fragment)
Kd [5]: 1300 nM

B1: eIF4G_K831E/S834D/R835E (domain or fragment, yeast, UniProt P39935 572-853, looked up)
chain: LVPSANRWVPKFKSKKTERKLAPDGKTELLDKDEVERKMKSLLNKLTLEMFDAISSEILAIANISVWETNGETLKAVIEQIFLKACDEPHWSSMYAQLCGKVVKELNPDITDETNEGKTGPKLVLHYLVARCHAEFDKGWTDKLPTNEDGTPLEPEMMSEEYYAAASAKRRGLGLVRFIGFLYRLNLLTGKMMFECFRRLMKDLTDSPSEETLESVVELLNTVGEQFETDSFRTGQATLEGSQLLDSLFGILDNIIQTAEISDEIKFKLIDIKELRHDKNWN
Kd [6]: 1100 ± 100 nM

B2: eIF4G_mid (aa 572–853 of eIF4G, middle domain) (domain or fragment, yeast, UniProt P39935 572-853, looked up)
chain: LVPSANRWVPKFKSKKTERKLAPDGKTELLDKDEVERKMKSLLNKLTLEMFDAISSEILAIANISVWETNGETLKAVIEQIFLKACDEPHWSSMYAQLCGKVVKELNPDITDETNEGKTGPKLVLHYLVARCHAEFDKGWTDKLPTNEDGTPLEPEMMSEEYYAAASAKRRGLGLVRFIGFLYRLNLLTGKMMFECFRRLMKDLTDSPSEETLESVVELLNTVGEQFETDSFRTGQATLEGSQLLDSLFGILDNIIQTAKISSRIKFKLIDIKELRHDKNWN
Kd [6]: 600 ± 100 nM | Kd (eIF4A_E43R): 200 ± 20 nM

B3: eIF4G_R835E (domain or fragment, yeast, UniProt P39935 572-853, looked up)
chain: LVPSANRWVPKFKSKKTERKLAPDGKTELLDKDEVERKMKSLLNKLTLEMFDAISSEILAIANISVWETNGETLKAVIEQIFLKACDEPHWSSMYAQLCGKVVKELNPDITDETNEGKTGPKLVLHYLVARCHAEFDKGWTDKLPTNEDGTPLEPEMMSEEYYAAASAKRRGLGLVRFIGFLYRLNLLTGKMMFECFRRLMKDLTDSPSEETLESVVELLNTVGEQFETDSFRTGQATLEGSQLLDSLFGILDNIIQTAKISSEIKFKLIDIKELRHDKNWN
Kd [6]: 1000 ± 100 nM
